Measured values reported in the DeepSol protein solubility set.

test: soluble on expression in E. coli; label from the status in PepcDB or PDB records

Sequence	soluble on expression in E. coli
MGSDKIHHHHHHMIQHKPDLIFLDINLPDINGIDFAEQVQSILPEVHIVFITAYDEYAVKAFELNAIDYVMKPVQRDRLNRTINRITDRKTVEPLRSQTDSKIISCFQTLHFQKGSEIGKAEPIDVNWRTAKARELFAYLVQHRKQPVRKDVLLEFFWPESDVKKGYAQLYSAIYQIRKMLDSLQMNSTVVSFDKSYKLHLNGTKLDVEEWERELRQLPNITEDTLPSYRRLLETYKGDYLAEEAYLWAENERERLRTLYHSTFNKVTTYYLECGYYTDAITLCQRVQTLHPLMETSYFLLMQVYAKMGDNHSVKSQYEKLNHVLEAEYGIHTSDSIENWYNEWKKQLQ	not soluble
MGSDKIHHHHHHMTITPHTLAVWADDQRAGLLDRSIDQHQYVFAYDPAAESPSAQVSLTMPVRLESWASRDLHPIFQMNLPEGALLEAIRRTVSKLIGEDDLTILRVTGGNQVGRNRFSLAADPAPGIVETKESLDELLSYPDTEELFNDLVAKYALRSGVSGVQPKVMLDATERGTAAVGGYIVKSWGSEYPQLAANEFFCMTAAKRAGLSVPEFHLSENGGLFVMKRFDLGERGEPLGFEDICSLQALATTRKYSSTYERVARTIKDFVSPAALLVAREQFFASLVLSCMVRNGDAHLKNFGVLYDRPGQLVQLAPVYDVVTTTAYIPKDVPALSLFGTKKWWSRRALERFAVSHLSLPVGRVGQILEKVAEAVTDTRGIVSAYMVEHPEYREVGNLQLASWEVGVANLVLI	not soluble
MGSDKIHHHHHHMKCILYKKALPLILLSCLLLGACGNSKNDSVSKEPLSHTSTEKGTWDSAPKVLTPTADGTQTYTCDVASIDASNSGSGYIIVNYHGSNQKVKLQITGPDSVTYTFDLHGGNEVFPLVASSGSYTVTVFENVEGTQYATVLSQVISVSITDEFGPYLYPNQYVNFTADSPAVKEGSSLAYYCSSDTEVVESVYNYIISNFKYDYDKAKNVKSGYLPDVDKVFTENTGICFDYAAVMATMLRTQAIPTRLEVGYAGEEYHAWISTYIKDKGWINGIIEFDGTSWNMLDPTFASTSDSPKKFIAQKSDYITKYVY	not soluble
MGSDKIHHHHHHMELKKLDEGLFWPDYKNSIVNFSNSILELFDEKPLHRPFRFPKRVLENVRKVIVMVIDGLSFEIFSDTIHDDDVQVFPCSAVFPTTTAAALPSLYSALTPLEHGFLGYILYLREVGSLVNMIEMSPPGLPRDSVLRFHDFKFTTIFQRLQSKVKSFFLIPRYLLGTGFSRIMSQGSEQIGFSSFGDMIERTLEVLEKHDRTLVFIYWPTLDSIAHKNGVGREYIRELRWIYRILKSELLRRLKQDTLFFLVSDHGQISTPQDNEIWWNFSSEVMRFLDRPPAGEQRMMFLYTKKKRALIEYLKEKYGDFAVFLDTKDVVQLFGTGRKHPEFFSRVGDAVLITRETFSFNYRYTGKEESLSGRHGSLSYQELVVPLVVYRRW	not soluble
MGSDKIHHHHHHMRITNTLTGKKEEFVPIQPGVVRMYVCGPTVYDLIHVGNARPALVFDVFRRYLEYRGYRVIMVQNFTDIDDKIINKANQLGVDYKTVADTFIAEYWRDAHALGIRPANFHPRTTDFVEDIVEIIEKLVEKGFAYQTETGVYFDVRKFEKYGELSKKKIEDLIAGARVEVDETKKSPLDFSLWKKAKPGEPCWKSPWGEGRPGWHIECTVMSVKILGESFDIHAGGEDLVFPHHENEKAQAEALTGKVFARYWMHNGMVRFLGDKMSKSTGNIFTVREAVKRYGRDGLRYMILSKHYRSPMDFSEELLQDYSRAVKRVWEILGRYEKSGDIGIPKRNAVYEEYVNRFVEALDDDFNTPVAVSLIFELARNLSKAMDDNDREDALLYYHLIRREFGPVLGLFDLNEEKKEVSSEELLKLLIEVRDVLRKEKRYDLSDRIRDRLREIGIILKDTPSGTEYTVE	not soluble
MGSDKIHHHHHHMLHNTNQPQISRQMNELEAQCGGRLFNRTGRGVELTDLGQHLLPKIRSWLNVTDQLNNEILHSTDTPIGTVRIASLPSTAHPLLSTLYKVLQEKYPLIKLSVREGQGVHLEKWLEDGSVDLAILYRFNPTPKQGDIYLTQADTYLVGCEGDALTQASEVDFKAINQLPLVTFCRPSNWRNFLDHMAYENGVELNIVFEADSISLQTHLVSESRMYTMLGPQALKKASQYTSIQAAKIINPALKRYISLSISKHGYLTPACKAVMEEIRNLADLL	not soluble
MSLAKGIMLHEVGEQVDQYLLIKSSTKGIASNGKPFLTLMLQDQSGDIEAKLWDAKQSDEVTYAPQTIVKVVGDVHHYRGRTQLKLRNIRPVSEQENVNIDDFLETAPIPKNEMMDTITQYIFEMKNPNIQRITRFLVKKHEAEFMDYPAATKNHHEFVSGLAYHVVSMLNLAKAIADLYPSLDRDLLYAGVILHDLGKVKELSGPVSTSYTVEGNLLGHISIMVTELSKAAEELQIDSEEVLILQHLILSHHGKAEWGSPKPPMVKEAEILHYIDNLDAKMNMMDRALERVKPGEYTERVFALENRSFYKPTFHKEGGSHHHHHH	soluble
MGSDKIHHHHHHMPEFNYQKAFPLKKDPTPYKLISTDYVSTIEVDGRKILKIDPKALELVAEKALADVSFYLRSSHLEKLAKIIKDPEATDNDRFVAYTLLQNASTAGEGKLPSCQDTGTAIVMGKKGENVWTGANDEEALSKGIYNTYQEKNLRYSQVVPITMFEEKNSGTNLPAQIDIYAEQGNEYKFLFMAKGGGSANKTYLYQQTKALLNENSLAEFVKNKIKDLGTSACPPYHLALVIGGTSAEANLKAVKLASAGYYDELPTEGNMGGQAFRDLEWEEKVQLICQESLIGAQFGGKYFTHDVKVIRLPRHAASCPVGIGVSCSADRNIKAKITEEGIFIEALETNPEKFLPAQAPHLEKAVEVDLNQPMADVLKLLSQYPIKTRLKLKGTLIVARDIAHAKIKELLDAGKPMPEYFKNHPVYYAGPAKTPEGMPSGSFGPTTAGRMDSYVNLFQSQGGSMIMLAKGNRSKAVTDACKEFGGFYLGSIGGPAAILAKENIKSVEVVDFEELGMEAVRKIEVVDFPAFIICDDKGNDFFANL	not soluble
MLNKLSLLLKDAGISLTDHQKNQLIAYVNMLHKWNKAYNLTSVRDPNEMLVRHILDSIVVAPYLQGERFIDVGTGPGLPGIPLSIVRPEAHFTLLDSLGKRVRFLRQVQHELKLENIEPVQSRVEEFPSEPPFDGVISRAFASLNDMVSWCHHLPGEQGRFYALKGQMPEDEIALLPEEYQVESVVKLQVPALDGERHLVVIKANKILEHHHHHH	not soluble
SLSTADALDDENTFKILVATDIHLGFMEKDAVRGNDTFVTLDEILRLAQENEVDFILLGGDLFHENKPSRKTLHTCLELLRKYCMGDRPVQFEILSDQSVNFGFSKFPWVNYQDGNLNISIPVFSIHGNHDDPTGADALCALDILSCAGFVNHFGRSMSVEKIDISPVLLQKGSTKIALYGLGSIPDERLYRMFVNKKVTMLRPKEDENSWFNLFVIHQNRSKHGSTNFIPEQFLDDFIDLVIWGHEHECKIAPTKNEQQLFYISQPGSSVVTSLSPGEAVKKHVGLLRIKGRKMNMHKIPLHTVRQFFMEDIVLANHPDIFNPDNPKVTQAIQSFCLEKIEEMLENAERERLGNSHQPEKPLVRLRVDYSGGFEPFSVLRFSQKFVDRVANPKDIIHFFRHREQKEKTGEEINFGKLITKPSEGTTLRVEDLVKQYFQTAEKNVQLSLLTERGMGEAVQEFVDKEEKDAIEELVKYQLEKTQRFLKERHIDALEDKIDEEVRRFRETRQKNTNEEDDEVREAMTRARALR	soluble
MQKEMEQDVKRFGQAAWATAIPRLEKLKLMLAQETLQLMRAKELCLNHKRAEIQGKMEDLPEQEKNINVVDELAIQFYEIQLELYEVKFEILKNKEILLTTQLDSLERLIKDEI	soluble
MGSDKIHHHHHHADWKVGIQTWTFHNLTLMETLDKTQQLGMGYAEAFFFQELGAPFPKETYLNYDLSDDNCALLRHEFKIRGIKPIAFGVASYGTNEEWDKFFAFAHKIGAHIVTVEPELNQLDYIESLAKKYDMEVAIHNHPSPCIYASAEVVEKALKGRSPLMGVCADIGHWKRVGEDPLKNLQKLSGRIKVAHLKDLTDKMEDATWGTGILPVKAFVNELKRQHFNGLISIEYDDFKSDIQEIRNSLEFLQKCSK	not soluble
MQTSIISAQSLSKLVSTNQEHLTILKQVNLSIQAGESVAIVGASGAGKSTLMTLLAGLDTPSEGEVYLLGKPLSQLDDEARAALRSESVGFVFQSFLLIPSLSALENVTLPCLLKGEAEDRERAQKLLKAVGLEHRMHHSPAQLSGGEQQRVAIARAFMISPQVLFADEPTGNLDQETAAKVIDLLFELNREHGTTLVLVTHDPKLAQRCQRRFFMQAGELEERV	not soluble
GGHTVPKPFNLSKGKRKHEEASDYVSTAEQVIAFYKRTPARYHLRSRQREMEGPSPVKMIKTKLTNPKTPLLQTKGRHRPV	soluble
